Source: the DeepSol protein solubility set

assay: soluble on expression in E. coli; label from the status in PepcDB or PDB records

Sequence	soluble on expression in E. coli
MGSDKIHHHHHHMEGNLKHNNGYCVICEKEATFIEHNDWLRDHYLCSTCHSIPRQRALIHVLNTFFPKWDSYHIHESSPGGITTQLLIKNCKNYTYSQYFKNYPLGQYFQGIRCENLENMTFQDESFDLFITQDVFEHVMEPNKAFKEIERVLKPGGAHVFTVPWYHTLPKTLQRARINEDGIEYIEEPIYHGNPIDENGSLVTFDWGQDMIEYIYTHANMYTLVYLQKDKSLGLDAEFLHVFISRKQENNF	not soluble
MAVEVVMPKLGMAMKEGIITSWNIKAGDNVAKGELIASINSEKIETEIEAPADGTILDIAVSEDEGVPPGTVICYIGKPNEKVEVHESTKVEEELTASEVPQNVQHPEPLGKEVTNKQRIKISPVAKKIAKTENLDIRALLGTGPGGRITKVDVLKALEERVAIPEVLEESKVLPVTGMRKAIANRMHASLQNSAQLTLTMKVDVTDLVALHKEIAEVVQKRYDNKLTITDFVSRAVVLALGEHKEMNSAYIDDAIHQFEHVHLGMAVALEKGLVVPAIRFANNLSLVELSKEIKNAAQKARAGNLNSDDMQGTTFTISNLGSFGIEYFTPVLNTPETGILGVGAIEHVPVYKGKKLKKGSMLPLSLTFDHRVLDGAPAAAFLRTIKRYLEEPVTILL	not soluble
MTSPASCSPPNEKRTGSPFPPESRSLPSTMEMTMNTIFRPAPHPLPDAPFYTPLGNECVLFESAWVRQLPLLLKGPTGCGKTRFVSHMAAKLGLPLSTISCHDDLAAADLTGRYLLKGGETVWMDGPLTRSVRQGGICYLDEIVEARKDVAVVLHPLTDDRRILPLERTGEVLEAPSGFMLVVSYNPGYQNLLKSLKPSTRQRFVAIEFDFLPKEQEIAVVSHESGLDARDVEPLVDLAHRLRGLKGHDLEEGVSTRLLVYCASLIDTGLPARQAVRATMIEPLTDEPDVKAALHEVADAIIRLEHHHHHH	not soluble
MGHHHHHHSHTRDELRAKALHIPFPVEKIINLPVVDFNEMMSKEQFNEAQLALIRDIRRRGKNKVAAQNCRKRKLENIVELEQDLDHLKDEKEKLLKEKGENDKSLHLLKKQLSTLYLEVFSMLRDEDGKPYSPSEYSLQQTRDGNVFLVPKSKK	soluble
MPVAVMADNAFSFRKLLDQCENQELEAPGGIATPPVYGQLLALYLLQNDMNNARYLWKRIPPAIKSANSELGGIWSVGQRIWQRDFPGIYTTINAHQWSETVQPIMEALRDATRRRAFALVSQAYTSIIADDFAAFVGLPVEEAVKGVLEQGWQADSTTRMVLPRKPAPGALDVSLNRFIPLSEPAPVPPIPNEQQLARLTDYVAFLEN	not soluble
MSLNKKVVIDDVAKLAGVSKATISRYLNGKFEYMSEKTKDRIKESIEELNYRPNNIARSLKSNKSKLIGVVIADLTNPFSSIIIKGIGDECKARGYNMVIANSDNDVKQEEEYIKSLLDQRVEGIIVNSTGYNEEFLLSIKERGIPVSMVDRTFCEDKVDSVKSNNYDITVETINYLIDAGFNSLCFFTERLDNIKPRIERERAFIDVCSKRLKKENYNISVVDYSKAGNLEVNIYKFLNNYSGKKAIFAVNGVVLLHTLSAINKLNINVPKDLGICGYDNWGWAALIPPGITTISQPSYEMGSEAAKLVLDRIEGKASLGAVCKTLSAKLEIRGSTIPLNEGHHHHHH	not soluble
MGSDKIHHHHHHMSTPGSTPPPSVADQPHPLPLANGHPISGATADAAAQWLTLLMSDEMTDSDYQCWQQWRAAHPDHERAWQHIEAVTARFRELPSTAAYKSLSPLTNPVSAGKPGSPGRRKAMGTLLWLGTAGVGSMLVSRTQIWQQTVADYRTGTGEQRAIYLADGTHIMLNTYSAIDVAFDAQHRTIRLITGDILITTHPVHTPISDPRPFIVETAEGRIRALGTRFTVSQRKGRTHVAVLEHAVEVTPAAAPDRQYILPAGQQLSFTRHTLNNATTLDKQTTGWTQGQIIADNIRLGDFITDLGRYRTGLLRCDPAVAELRLSGVFPLDDTDRILETLPSVLPVRVRLRTRYWVIVEAAS	not soluble
MSLDVRQSIHSAHAKTLDTQGLRNEFLVEKVFVADEYTMVYSHIDRIIVGGIMPITKTVSVGGEVGKQLGVSYFLERRELGVINIGGAGTITVDGQCYEIGHRDALYVGKGAKEVVFASIDTGTPAKFYYNCAPAHTTYPTKKVTPDEVSPVTLGDNLTSNRRTINKYFVPDVLETCQLSMGLTELAPGNLWNTMPCHTHERRMEVYFYFNMDDDACVFHMMGQPQETRHIVMHNEQAVISPSWSIHSGVGTKAYTFIWGMVGENQVFDDMDHVAVKDLREGHHHHHH	soluble
